Measured values from patent US20240218060A1 (Hoffmann-La Roche, published 2024).

Molecular target: T1, human neonatal Fc-receptor (FcRn) (human, UniProt P55899 24-297; P61769 21-119)
T1 construct: also called human FcRn; huFcRn
Test: SPR (BIAcore T100), FcRn immobilised on a CM5 chip, 200 nM antibody, PBS 0.05% Tween20 pH 6.0
Experimental: The binding properties of wild-type antibody and the mutants to FcRn were analyzed by surface plasmon resonance (SPR) technology using a BIAcore T100 instrument (BIAcore AB, Uppsala, Sweden). […] In the current assay, the FcRn receptor was immobilized onto a BIAcore CM5-biosensor chip (GE Healthcare Bioscience, Uppsala, Sweden) via amine coupling to a level of 400 Response units (RU). The assay was carried out at room temperature with PBS, 0.05% Tween20 pH 6.0 (GE Healthcare Bioscience) as running and dilution buffer. 200 nM of samples were injected at a flow rate of 50 μL/min at room temperature. Association time was 180 sec., dissociation phase took 360 sec. Regeneration of the chip surface was reached by a short injection of HBS-P, pH 8.0. Evaluation of SPR-data was performed by comparison of the biological response signal height at 180 sec. after injection and at 300 sec. after injection. The corresponding parameters are the RU max level (180 sec. after injection) and late stability (300 sec. after end of injection).

T1 sequence (P55899 24-297 limits assumed, chain 1 of 2): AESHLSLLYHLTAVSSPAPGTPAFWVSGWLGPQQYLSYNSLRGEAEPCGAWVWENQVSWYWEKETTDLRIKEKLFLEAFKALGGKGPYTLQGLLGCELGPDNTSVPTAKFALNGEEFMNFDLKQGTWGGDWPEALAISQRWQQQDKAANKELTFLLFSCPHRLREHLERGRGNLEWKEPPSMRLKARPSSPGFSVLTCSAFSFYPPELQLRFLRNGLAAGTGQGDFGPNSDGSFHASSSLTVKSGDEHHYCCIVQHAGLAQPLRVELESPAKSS
T1 sequence (P61769 21-119 limits assumed, chain 2 of 2): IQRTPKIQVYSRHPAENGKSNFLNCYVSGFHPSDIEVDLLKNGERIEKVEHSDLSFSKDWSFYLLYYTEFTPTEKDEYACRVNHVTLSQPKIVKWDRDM

B1: YTE-mutant of anti-IGF-1R antibody (antibody, human IgG1, kappa)
light: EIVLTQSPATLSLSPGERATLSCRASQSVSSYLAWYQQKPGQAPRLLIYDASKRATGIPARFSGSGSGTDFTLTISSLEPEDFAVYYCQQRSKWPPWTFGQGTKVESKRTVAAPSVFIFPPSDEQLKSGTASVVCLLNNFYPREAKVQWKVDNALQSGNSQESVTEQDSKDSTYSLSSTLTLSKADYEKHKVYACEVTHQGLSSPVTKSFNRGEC
heavy: QVELVESGGGVVQPGRSQRLSCAASGFTFSSYGMHWVRQAPGKGLEWVAIIWFDGSSTYYADSVRGRFTISRDNSKNTLYLQMNSLRAEDTAVYFCARELGRRYFDLWGRGTLVSVSSASTKGPSVFPLAPSSKSTSGGTAALGCLVKDYFPEPVTVSWNSGALTSGVHTFPAVLQSSGLYSLSSVVTVPSSSLGTQTYICNVNHKPSNTKVDKKVEPKSCDKTHTCPPCPAPELLGGPSVFLFPPKPKDTLYITREPEVTCVVVDVSHEDPEVKFNWYVDGVEVHNAKTKPREEQYNSTYRVVSVLTVLHQDWLNGKEYKCKVSNKALPAPIEKTISKAKGQPREPQVYTLPPSRDELTKNQVSLTCLVKGFYPSDIAVEWESNGQPENNYKTTPPVLDSDGSFFLYSKLTVDKSRWQQGNVFSCSVMHEALHNHYTQKSLSLSPG
notes: also called <IGF-1R> IgG1 with M252Y, S254T, T256E; anti-IGF-1R IgG1 with YTE mutation
B1: binds.
